The Human Domainome abundance scans (Beltran et al. 2025)

B1: RNA-binding E3 ubiquitin-protein ligase MEX3C, residues 325 to 391; numbered along this chain, Q5U5Q3 (parent)
chain: GQTTVQVRVPYRVVGLVVGPKGATIKRIQQQTHTYIVTPSRDKEPVFEVTGMPENVDRAREEIEMHI

Variants of: B1
Experiment: abundance fitness (aPCA) (normalised: wild type 0, dead -1); higher = more abundant; growth selection in yeast, the domain comes from the species named
Settings: Homo sapiens

Abundance fitness: each site, then its substitutions
V17: L -0.415; K -0.533; A -0.436; Q -0.529; R -0.751; D -0.702; I 0.013; F -0.711; W -0.635; Y -0.505; E -0.537; M -0.741; S -0.872; H -0.149; T -0.524
V9: G -0.551; I -0.54; P -0.825; R -0.609; K -0.776; W -0.767; T -0.84; F -0.933; H -0.928; N -0.954; L -0.873; M -0.641; Q -0.993; E -0.733; A -0.657; D -0.834
Q6: G -0.16; V 0.071; R 0.159; W -0.513; Y 0.269; S -0.056; H -0.099; L -0.022; M -0.151; P -0.3; T -0.247
G22: T -0.68; Q -0.189; S -0.522; E -0.389; F -0.738; D -0.543; L -0.587; P -0.836; H -0.769; N -0.631; K -0.424; M -0.274; R -0.504; C -0.712; A -0.489; W -0.687
G15: I -0.872; P -0.093; D 0.018; Q -0.181; N -0.234; C -0.59; M -0.459; H -0.059; S -0.128; R -0.212; A -0.067; V -0.986; Y -0.691; K -0.235; E -0.121; W -0.779
R12: A 0.001; L -0.588; I -0.373; S 0.175; E 0.136; H -0.189; G 0.143; M -0.401; Q 0.013; F -0.11; P 0.054; V -0.652; D 0.159; N 0.141; Y -0.064; K 0.063; T -0.201
R8: P -0.18; D -0.666; C -0.675; E -0.52; S -0.377; H -0.345; Y -0.175; W -0.382; N -0.971; M -0.555; T -0.209; V -0.66; F -0.666; K 0.038; Q -0.683; I -0.375; L -0.601; A -0.608; G -0.763
T24: C -0.574; N 0.171; Y -0.589; A -0.53; P -1.02; Q -0.818; W -0.553; M -0.786; L -0.875; D -0.67; V -0.517; S -0.731; G -0.371; H -0.28; R -0.366; I -0.792; K -0.346; E -0.304
L16: D -0.058; C -0.213; N -0.312; Q 0.034; W -0.122; F -0.139; G -0.506; T -0.095; P -0.615; V -0.353; I -0.174; M 0.316; Y -0.228; E -0.133; K -0.192; A -0.052; H -0.047; R 0.075
V18: I 0.019; F -0.374; Y -0.256; M -0.119; H -0.456; C -0.258; A -0.433; S -0.523; P -0.771; K -0.541; Q -0.63; R -0.508; W -0.639; D -0.367; T -0.26; G -0.794; E -0.284; N -0.305
Y11: W 0.136; S 0.236; F -0.514; E 0.402; G -0.013; R 0.262; H 0.17; K 0.369; Q 0.233; N -0.014; L -0.029; P 0.128; M 0.154; A 0.171
I25: R -0.39; Y -0.502; M -0.571; F -0.905; L -0.165; T -0.75; G -0.68; P -0.64; H -0.62; C -0.58; A -0.811; E -0.786; K -0.754
P10: D -0.372; S -0.793; W -0.841; C -0.655; H -0.825; T -0.611; I -0.634; V -0.707; M -0.885; K -0.563; L -0.693; Q -0.754; F -1.1; A -0.708; G -0.767
G19: D -0.716; Y -0.159; Q -0.623; I -1.08; W -0.848; N -0.64; K -0.785; R -0.739; L -0.951; F -0.863; T -0.822; E -0.897; C -0.844; P -0.824; H -0.694; A -0.86; M -1.03; V -0.795
A23: E -0.082; T -0.012; H -0.258; W -0.553; C -0.352; I -0.332; N -0.568; R 0.063; Q 0.003; M -0.027; S -0.08; V -0.477; F -0.868; D -0.55; G -0.443; L -0.293
K26: L -0.655; F -0.786; A -0.119; D -0.417; H -0.66; M -0.212; C -0.911; P -0.56; G -0.769; N -0.491; Q -0.343
P20: R -0.039; T -0.472; S -0.408; Q -0.15; L -0.59; V -0.449; I 0.051; C -0.444; G -0.717; A -0.381; K -0.026; M -0.763; H -0.123; W -0.625; E -0.139; Y -0.266
K21: S -0.233; T -0.596; P -0.884; D -0.19; H -0.273; I -0.53; G -0.04; M -0.031; R -0.196; A -0.186; W -0.458; E -0.099; C -0.247; N -0.113; L -0.183
V14: D -0.529; S -0.603; K -0.636; C -0.89; I 0.114; Y -0.51; E -0.51; G -0.746; Q -0.881; F -0.315; M -0.185; P -0.703; R -0.372; T -0.524; W -0.349
V13: S 0.127; L 0.114; Y -0.073; R -0.25; T -0.006; K 0.216; H -0.041; C -0.024; M 0.075; W -0.098; P -0.809; Q 0.169; E -0.334; A -0.029; D 0.057; N -0.207; I -0.366; F 0.022; G -0.153
V7: L -0.537; E -0.39; I 0.092; W -0.92; K -0.47; G -0.809; S -0.516; Q -0.603; T -0.802; R -0.851; Y -0.717; F -0.124; H -0.603; D -0.571; A -0.731; C -0.769; N -0.987; P -0.567
